What was measured:
[1] = target: human NT5E-Biotin (NT5E is GenbankID: NP_002517.1, position: 1-552) (human) (UniProt P21589); experiment: ELISA on streptavidin-captured human NT5E-Biotin; HRP goat anti-human IgG
[2] = target: human NT5E-Biotin (NT5E is GenbankID: NP_002517.1, position: 1-552) (human) (UniProt P21589); experiment: ELISA on streptavidin-captured human NT5E-Biotin; antibody 1:243 dilution of 0.333 ug/mL; replicate 2
[3] = target: human NT5E-Biotin (NT5E is GenbankID: NP_002517.1, position: 1-552) (human) (UniProt P21589); experiment: ELISA on streptavidin-captured human NT5E-Biotin; antibody 0.333 ug/mL; replicate 1
[4] = target: human NT5E-Biotin (NT5E is GenbankID: NP_002517.1, position: 1-552) (human) (UniProt P21589); experiment: ELISA on streptavidin-captured human NT5E-Biotin; antibody 0.333 ug/mL; replicate 2
[5] = target: human CD73 expressed on cells (human PBMC CD8+ T cells and CD19+ B cells; endogenous CD73 of MDA-MB-231 and U87-MG cells) (human) (UniProt P21589); experiment: cell-based or functional assay
Chain of human CD73 expressed on cells (human PBMC CD8+ T cells and CD19+ B cells; endogenous CD73 of MDA-MB-231 and U87-MG cells) (human) (P21589 27-549): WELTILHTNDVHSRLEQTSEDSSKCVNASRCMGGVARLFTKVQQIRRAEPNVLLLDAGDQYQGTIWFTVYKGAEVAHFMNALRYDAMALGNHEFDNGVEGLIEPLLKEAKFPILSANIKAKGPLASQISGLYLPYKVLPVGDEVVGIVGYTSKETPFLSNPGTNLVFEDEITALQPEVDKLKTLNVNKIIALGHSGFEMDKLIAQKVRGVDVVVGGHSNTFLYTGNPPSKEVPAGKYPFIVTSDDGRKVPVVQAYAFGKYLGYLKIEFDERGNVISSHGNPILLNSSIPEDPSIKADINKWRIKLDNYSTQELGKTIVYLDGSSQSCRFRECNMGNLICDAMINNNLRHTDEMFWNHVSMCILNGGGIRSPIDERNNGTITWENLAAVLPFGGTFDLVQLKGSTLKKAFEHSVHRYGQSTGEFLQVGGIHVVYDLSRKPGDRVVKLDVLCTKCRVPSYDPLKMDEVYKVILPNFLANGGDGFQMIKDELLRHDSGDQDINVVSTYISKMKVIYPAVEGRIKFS

[6] = target: human NT5E-Biotin (NT5E is GenbankID: NP_002517.1, position: 1-552) (human) (UniProt P21589); experiment: ELISA on streptavidin-captured human NT5E-Biotin; antibody 1:27 dilution of 0.333 ug/mL; replicate 1
[7] = target: human NT5E-Biotin (NT5E is GenbankID: NP_002517.1, position: 1-552) (human) (UniProt P21589); experiment: ELISA on streptavidin-captured human NT5E-Biotin; antibody 1:729 dilution of 0.333 ug/mL; replicate 1
[8] = target: human NT5E-Biotin (NT5E is GenbankID: NP_002517.1, position: 1-552) (human) (UniProt P21589); experiment: ELISA on streptavidin-captured human NT5E-Biotin; antibody 1:3 dilution of 0.333 ug/mL; replicate 2
[9] = target: human NT5E-Biotin (NT5E is GenbankID: NP_002517.1, position: 1-552) (human) (UniProt P21589); experiment: ELISA on streptavidin-captured human NT5E-Biotin; antibody 1:3 dilution of 0.333 ug/mL; replicate 1
[10] = target: human NT5E-Biotin (NT5E is GenbankID: NP_002517.1, position: 1-552) (human) (UniProt P21589); experiment: ELISA on streptavidin-captured human NT5E-Biotin; antibody 1:27 dilution of 0.333 ug/mL; replicate 2
[11] = target: human NT5E-Biotin (NT5E is GenbankID: NP_002517.1, position: 1-552) (human) (UniProt P21589); experiment: ELISA on streptavidin-captured human NT5E-Biotin; antibody 0 (blank well); replicate 2
[12] = target: human NT5E-Biotin (NT5E is GenbankID: NP_002517.1, position: 1-552) (human) (UniProt P21589); experiment: ELISA on streptavidin-captured human NT5E-Biotin; antibody 1:243 dilution of 0.333 ug/mL; replicate 1
[13] = target: human NT5E-Biotin (NT5E is GenbankID: NP_002517.1, position: 1-552) (human) (UniProt P21589); experiment: ELISA on streptavidin-captured human NT5E-Biotin; antibody 1:9 dilution of 0.333 ug/mL; replicate 1
[14] = target: human NT5E-Biotin (NT5E is GenbankID: NP_002517.1, position: 1-552) (human) (UniProt P21589); experiment: ELISA on streptavidin-captured human NT5E-Biotin; antibody 1:9 dilution of 0.333 ug/mL; replicate 2
[15] = target: human NT5E-Biotin (NT5E is GenbankID: NP_002517.1, position: 1-552) (human) (UniProt P21589); experiment: ELISA on streptavidin-captured human NT5E-Biotin; antibody 0 (blank well); replicate 1
[16] = target: human NT5E-Biotin (NT5E is GenbankID: NP_002517.1, position: 1-552) (human) (UniProt P21589); experiment: ELISA on streptavidin-captured human NT5E-Biotin; antibody 1:81 dilution of 0.333 ug/mL; replicate 2
[17] = target: human NT5E-Biotin (NT5E is GenbankID: NP_002517.1, position: 1-552) (human) (UniProt P21589); experiment: ELISA on streptavidin-captured human NT5E-Biotin; antibody 1:729 dilution of 0.333 ug/mL; replicate 2
[18] = target: human NT5E-Biotin (NT5E is GenbankID: NP_002517.1, position: 1-552) (human) (UniProt P21589); experiment: ELISA on streptavidin-captured human NT5E-Biotin; antibody 1:81 dilution of 0.333 ug/mL; replicate 1

Chain of human NT5E-Biotin (NT5E is GenbankID: NP_002517.1, position: 1-552) (human) (P21589 27-552 limits assumed, form in doubt): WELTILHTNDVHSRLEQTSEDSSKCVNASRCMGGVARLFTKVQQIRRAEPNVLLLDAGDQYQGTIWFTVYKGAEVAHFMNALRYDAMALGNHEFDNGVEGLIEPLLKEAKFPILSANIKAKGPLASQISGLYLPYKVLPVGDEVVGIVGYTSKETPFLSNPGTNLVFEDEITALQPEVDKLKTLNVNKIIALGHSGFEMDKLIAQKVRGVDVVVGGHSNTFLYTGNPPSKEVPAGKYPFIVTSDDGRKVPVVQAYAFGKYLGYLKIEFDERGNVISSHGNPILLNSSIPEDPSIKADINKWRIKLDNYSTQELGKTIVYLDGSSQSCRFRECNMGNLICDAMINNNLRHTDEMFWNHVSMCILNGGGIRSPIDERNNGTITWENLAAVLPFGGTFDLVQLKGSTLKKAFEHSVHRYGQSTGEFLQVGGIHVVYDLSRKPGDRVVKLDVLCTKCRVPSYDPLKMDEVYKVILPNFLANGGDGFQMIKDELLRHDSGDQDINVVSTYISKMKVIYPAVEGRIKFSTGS

- EC50 [1]: 0.048 nM
- OD (450 nm) [2]: 0.528 OD450
- OD (450 nm) [3]: 2.55 OD450
- OD (450 nm) [4]: 2.53 OD450
- Inhibition rate EC50 (nM): enzyme activity of CD73 expressed by human PBMC membrane (AMP/ATP CellTiter-Glo read-out) [5]: 0.0064 nM
- internalization rate of CD73 in MDA-MB-231 cells after 22 hours (FACS) [5]: 50.5%
- internalization rate of CD73 in U87-MG cells after 22 hours (FACS) [5]: 73.7%
- OD (450 nm) [6]: 1.77 OD450
- OD (450 nm) [7]: 0.272 OD450
- OD (450 nm) [8]: 2.6 OD450
- OD (450 nm) [9]: 2.57 OD450
- OD (450 nm) [10]: 1.74 OD450
- OD (450 nm) [11]: 0.116 OD450
- OD (450 nm) [12]: 0.536 OD450
- OD (450 nm) [13]: 2.27 OD450
- OD (450 nm) [14]: 2.28 OD450
- OD (450 nm) [15]: 0.121 OD450
- OD (450 nm) [16]: 1.03 OD450
- OD (450 nm) [17]: 0.275 OD450
- OD (450 nm) [18]: 1.06 OD450
Substance: positive control antibody MEDI9447 (Oleclumab)
